Results on 4 molecules are retold here after patent US20190300618A1 (Merck Sharp & Dohme, published 2019).

For test [1], the target named is human CD27 (wild type), expressed on cells (human) (UniProt P26842). Nature of the test: cell ELISA on transfected CHO cells.
The target in test [2] is Macaca mulatta CD27 (mmCD27), expressed on cells (Macaca mulatta (rhesus); same entry given for cynomolgus monkey). As to the kind of experiment: flow cytometry MFI on CD8+ T cells from rhesus peripheral blood. In general terms: In flow cytometry, cells or beads pass a laser one at a time.
Target sequence in this assay (chain, as listed by the source): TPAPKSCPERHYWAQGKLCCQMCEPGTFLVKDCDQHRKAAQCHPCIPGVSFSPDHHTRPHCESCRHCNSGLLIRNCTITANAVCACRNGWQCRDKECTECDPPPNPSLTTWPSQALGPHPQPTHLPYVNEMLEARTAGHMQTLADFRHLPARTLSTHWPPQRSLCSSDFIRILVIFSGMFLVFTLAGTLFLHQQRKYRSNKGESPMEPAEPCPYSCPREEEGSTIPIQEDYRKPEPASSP
For test [3] the target is unchanged. As to the kind of experiment: cell ELISA on CD27-transfected CHOK1 cells.
Test [4] concerns the target human CD27 (A59T), expressed on cells (human) (UniProt P26842). As to the kind of experiment: cell ELISA on CD27-transfected CHOK1 cells. A general note: ELISA stands for enzyme-linked immunosorbent assay.
Test [5] addresses human CD27 (wild type), expressed on cells (human) (UniProt P26842). Nature of the test: cell ELISA on CD27-transfected CHOK1 cells.
For test [6] the target is unchanged. As to the kind of experiment: flow cytometry MFI on CD8+ T cells from peripheral blood.
Test [7] has the same target. As to the kind of experiment: flow cytometry on primary T cells.
In a further test the target is K17A. Nature of the test: flow cytometry, CHO-K1; sub-column 2 of 2.
The target of a further test is R10A. As to the kind of experiment: flow cytometry, CHO-K1; sub-column 2 of 2.
In test [8] the target is N88A. As to the kind of experiment: flow cytometry, CHO-K1; sub-column 2 of 2.
A further test addresses R37A. Nature of the test: flow cytometry, CHO-K1; sub-column 2 of 2.
The target of the next test is G89A. As to the kind of experiment: flow cytometry, CHO-K1; sub-column 2 of 2.
A further test deals with Q91A. As to the kind of experiment: flow cytometry, CHO-K1; sub-column 2 of 2.
A further test deals with H36A. As to the kind of experiment: flow cytometry, CHO-K1; sub-column 2 of 2.
A further test addresses S63A. As to the kind of experiment: flow cytometry, CHO-K1; sub-column 2 of 2.
A further test has as its target K38A. As to the kind of experiment: flow cytometry, CHO-K1; sub-column 2 of 2.
Another test has as its target W90A. As to the kind of experiment: flow cytometry, CHO-K1; sub-column 2 of 2.
In another test the target is G16A. As to the kind of experiment: flow cytometry, CHO-K1; sub-column 2 of 2.
A further test deals with V30A. As to the kind of experiment: flow cytometry, CHO-K1; sub-column 2 of 2.
Another test concerns the target K31A. Nature of the test: flow cytometry, CHO-K1; sub-column 2 of 2.
In a further test the target is E9A. As to the kind of experiment: flow cytometry, CHO-K1; sub-column 2 of 2.
Another test addresses D43A. Nature of the test: flow cytometry, CHO-K1; sub-column 2 of 2.
The target of test [9] is W13A. Nature of the test: flow cytometry, CHO-K1; sub-column 2 of 2.
The next test has as its target H60A. As to the kind of experiment: flow cytometry, CHO-K1; sub-column 2 of 2.
In the next test the target is D32A. As to the kind of experiment: flow cytometry, CHO-K1; sub-column 2 of 2.
Test [10] deals with Q15A. Nature of the test: flow cytometry, CHO-K1; sub-column 2 of 2.
The target of another test is P44A. Nature of the test: flow cytometry, CHO-K1; sub-column 2 of 2.
In the next test the target is V49A. As to the kind of experiment: flow cytometry, CHO-K1; sub-column 2 of 2.
Another test concerns the target F28A. Nature of the test: flow cytometry, CHO-K1; sub-column 2 of 2.
The target of a further test is Q41A. Nature of the test: flow cytometry, CHO-K1; sub-column 2 of 2.
Another test has as its target I46A. Nature of the test: flow cytometry, CHO-K1; sub-column 2 of 2.
The next test concerns the target P8A. As to the kind of experiment: flow cytometry, CHO-K1; sub-column 2 of 2.
Another test addresses R87A. Nature of the test: flow cytometry, CHO-K1; sub-column 2 of 2.
The next test concerns the target R93A. As to the kind of experiment: flow cytometry, CHO-K1; sub-column 2 of 2.
The target in test [11] is human CD27 (wild type), expressed on cells (human) (UniProt P26842). Nature of the test: competition cell ELISA on CHO-hCD27; competitor detected: mouse hCD27.15 at 1 µg/ml.
In test [12] the target is T1, W13A.
T1 construct: also called hCD27 W13A
T1 receptor: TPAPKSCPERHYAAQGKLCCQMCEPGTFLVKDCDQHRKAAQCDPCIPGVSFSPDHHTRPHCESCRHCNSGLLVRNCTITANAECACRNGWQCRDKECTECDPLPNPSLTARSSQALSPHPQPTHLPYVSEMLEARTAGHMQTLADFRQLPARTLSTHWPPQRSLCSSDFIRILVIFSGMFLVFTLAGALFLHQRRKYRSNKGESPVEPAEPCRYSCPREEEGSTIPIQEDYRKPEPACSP
Nature of the test: flow cytometry, CHO-K1; sub-column 1 of 2.

The target in test [13] is T2, Q15A.
T2 construct: also called hCD27 Q15A
T2 receptor: T1 receptor with A13W, Q15A
Nature of the test: flow cytometry, CHO-K1; sub-column 1 of 2.

In test [14] the target is T3, N88A.
T3 construct: also called hCD27 N88A
T3 receptor: T1 receptor with A13W, N88A
Nature of the test: flow cytometry, CHO-K1; sub-column 1 of 2.

Substitutions are numbered along the chain they refer to.

As for 1F5 hIgG1 (antibody), the fold higher EC50 compared to 131AVH6VL6-hIgG1 turned out to be 4 fold in test [1] and 5 fold in [7]. Also, the half-maximal effective concentration (EC50) in [2] came out at 1.92 nM; in test [3], 0.193 nM; in test [4], 0.326 nM; in test [5], 0.325 nM; in [6], 1.3 nM. In addition, the % of WT hCD27 binding (geo mean FITC) with K17A came to 112%; with R10A, 113%; with N88A [8], 119%; with R37A, 88%; with G89A it was 68.5%; in the test with Q91A, 115%. Further, the % of WT hCD27 binding (geo mean FITC) is 80% with H36A; 121% with S63A; 94.2% in the test with K38A; 10% with W90A; 101% with G16A; 88.9% with V30A. Further, the % of WT hCD27 binding (geo mean FITC) with K31A stood at 120%; with E9A, 120%; with D43A, 86.1%; with W13A [9] it was 82.8%; with H60A it was 110%; with D32A, 59.6%. Also, the % of WT hCD27 binding (geo mean FITC) with Q15A [10] was determined as 127%; with P44A, 83.7%; with V49A, 92.8%; in the test with F28A it was 46.2%; with Q41A it was 66.3%; with I46A, 69.7%. Also, the figures for the % of WT hCD27 binding (geo mean FITC) with P8A, in the test with R87A and with R93A were 73.1%, 7.8% and 85.5%, respectively. This molecule displayed an IC50 (read off the curve) in test [11] of 4 nM.

For 1A4 (mouse IgG1) (antibody), the % of WT hCD27 binding (geo mean FITC) is 89.1% with W13A [12], 32% with Q15A [13] and 154% with N88A [14].

With 9F4 (mouse IgG2a) (antibody), the % of WT hCD27 binding (geo mean FITC) is 90.7% in the test with W13A [12], 107% in the test with Q15A [13] and 153% with N88A [14].

B1: Antibody hCD27.131A (mouse parental 131A) (antibody, V domains shown)
VH: QIQLVQSGPELKKPGETVKISCKASGYTFTNYGMNWVKQAPGKGLKWMGWINTNTGEPTYAEEFKGRFAFSLETSATTAYLQINNLKNEDTATYFCAREGDAMDYWGQGTSVTVSS
VL: QIVLTQSPAIMSASPGEKVTMTCSASSSVSYMHWYQQKSGTSPKRWIYDTSKLASGVPARFSGSGSGTSYSLTISSMEAEDAATYYCQQWNSYPFTFGSGTKLEIK
notes: mouse IgG1; also called mouse hCD27.131A
On to B1, for which the “% of WT hCD27 binding (geo mean FITC)” value is 86% with W13A [12], 99.6% in the test with Q15A [13] and 162% with N88A [14].

As usually defined, the EC50 is the concentration needed to bring the measured effect to its halfway point. Read a high EC50 as a need for much substance.
